Results from paper PMC6587457, “The green microalga Lobosphaera incisa harbours an arachidonate 15S‐lipoxygenase” (Plant Biology (Stuttgart, Germany), 2018).

T1: LiLOX (Lobosphaera incisa, UniProt A0A3G6V563)
T1 construct: full length 994 aa; cloned without N-terminal putative plastid signal peptide of 62 residues (ChloroP); N-terminal His tag, pET28a; E. coli BL21 Star; IMAC and SEC
T1 sequence (A0A3G6V563 63-994): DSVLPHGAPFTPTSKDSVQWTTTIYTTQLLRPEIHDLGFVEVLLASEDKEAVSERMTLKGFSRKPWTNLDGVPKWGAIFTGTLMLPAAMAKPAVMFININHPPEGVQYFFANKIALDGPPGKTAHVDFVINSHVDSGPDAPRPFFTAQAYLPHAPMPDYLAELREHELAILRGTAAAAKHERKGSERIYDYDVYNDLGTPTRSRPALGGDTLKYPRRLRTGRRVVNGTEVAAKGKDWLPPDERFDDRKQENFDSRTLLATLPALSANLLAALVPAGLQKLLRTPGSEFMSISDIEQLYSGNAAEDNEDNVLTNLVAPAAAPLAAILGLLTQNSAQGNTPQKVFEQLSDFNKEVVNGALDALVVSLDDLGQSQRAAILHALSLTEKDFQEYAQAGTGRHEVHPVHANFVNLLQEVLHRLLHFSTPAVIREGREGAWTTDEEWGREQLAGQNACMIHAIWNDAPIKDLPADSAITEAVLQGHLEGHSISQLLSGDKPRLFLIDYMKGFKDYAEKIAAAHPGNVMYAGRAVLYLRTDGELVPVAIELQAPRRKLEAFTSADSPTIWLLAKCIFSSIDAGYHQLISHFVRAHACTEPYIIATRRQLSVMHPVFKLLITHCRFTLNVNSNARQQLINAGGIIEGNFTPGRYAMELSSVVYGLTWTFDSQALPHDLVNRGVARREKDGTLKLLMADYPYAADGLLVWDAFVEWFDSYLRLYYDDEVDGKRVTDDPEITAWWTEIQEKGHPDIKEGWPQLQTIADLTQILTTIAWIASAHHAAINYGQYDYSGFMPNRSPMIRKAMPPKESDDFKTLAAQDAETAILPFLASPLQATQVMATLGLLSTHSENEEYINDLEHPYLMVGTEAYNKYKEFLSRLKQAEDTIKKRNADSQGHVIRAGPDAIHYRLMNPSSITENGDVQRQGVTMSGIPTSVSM


Experiments:
LiLOX = biological target: T1, LiLOX; experiment: absorbance at […] nm (conjugated diene); type: biochemical; conditions: Hill equation fit (not Michaelis-Menten), 20 mM Bis-TRIS propane pH 7.5, 30 °C, 1 μg enzyme, 10-100 μM substrate
purified protein = substrate: CCCCC/C=C\C/C=C\C/C=C\C/C=C\CCCC(=O)O; experiment: purified protein; type: biochemical, Lobosphaera incisa; conditions: Hill equation fit (not Michaelis-Menten), 20 mM Bis-TRIS propane pH 7.5, 30 °C, 1 μg enzyme, 10-100 μM substrate

| Molecule | Km (LiLOX) [µM] | K0.5 (purified protein) [µM] | kcat (purified protein) [s⁻¹] | kcat/Km (purified protein) [M⁻¹ s⁻¹] |
| --- | --- | --- | --- | --- |
| CCCCC/C=C\C/C=C\CCCCCCCC(=O)O [18:2(n‐6)] | 31.2 ± 2.78 |  |  |  |
| CC/C=C\C/C=C\C/C=C\CCCCCCCC(=O)O [18:3(n‐3)] | 55.5 ± 4.1 |  |  |  |
| LiLOX (Lobosphaera incisa) (protein, full length 994 aa; cloned without N-terminal putative plastid signal peptide of 62 residues (ChloroP); N-terminal His tag, pET28a; E. coli BL21 Star; IMAC and SEC) DSVLPHGAPFTPTSKDSVQWTTTIYTTQLLRPEIHDLGFVEVLLASEDKEAVSERMTLKGFSRKPWTNLDGVPKWGAIFTGTLMLPAAMAKPAVMFININHPPEGVQYFFANKIALDGPPGKTAHVDFVINSHVDSGPDAPRPFFTAQAYLPHAPMPDYLAELREHELAILRGTAAAAKHERKGSERIYDYDVYNDLGTPTRSRPALGGDTLKYPRRLRTGRRVVNGTEVAAKGKDWLPPDERFDDRKQENFDSRTLLATLPALSANLLAALVPAGLQKLLRTPGSEFMSISDIEQLYSGNAAEDNEDNVLTNLVAPAAAPLAAILGLLTQNSAQGNTPQKVFEQLSDFNKEVVNGALDALVVSLDDLGQSQRAAILHALSLTEKDFQEYAQAGTGRHEVHPVHANFVNLLQEVLHRLLHFSTPAVIREGREGAWTTDEEWGREQLAGQNACMIHAIWNDAPIKDLPADSAITEAVLQGHLEGHSISQLLSGDKPRLFLIDYMKGFKDYAEKIAAAHPGNVMYAGRAVLYLRTDGELVPVAIELQAPRRKLEAFTSADSPTIWLLAKCIFSSIDAGYHQLISHFVRAHACTEPYIIATRRQLSVMHPVFKLLITHCRFTLNVNSNARQQLINAGGIIEGNFTPGRYAMELSSVVYGLTWTFDSQALPHDLVNRGVARREKDGTLKLLMADYPYAADGLLVWDAFVEWFDSYLRLYYDDEVDGKRVTDDPEITAWWTEIQEKGHPDIKEGWPQLQTIADLTQILTTIAWIASAHHAAINYGQYDYSGFMPNRSPMIRKAMPPKESDDFKTLAAQDAETAILPFLASPLQATQVMATLGLLSTHSENEEYINDLEHPYLMVGTEAYNKYKEFLSRLKQAEDTIKKRNADSQGHVIRAGPDAIHYRLMNPSSITENGDVQRQGVTMSGIPTSVSM |  | 12.64 ± 1.1 | 10.1 ± 0.454 | 799000 |
